From publication PMC6075789, “Comparative proteomics of the two T. brucei PABPs suggests that PABP2 controls bulk mRNA” (PLoS Neglected Tropical Diseases, 2018) come the findings set out here.

In experiment [1] the target is T1, G1-IP2 eYFP fusion protein (T. brucei, UniProt Q387L6 1-435).
T1 construct: The methods say N-terminal eYFP for all proteins but RBP23; the results print the label G1-IP2-eYFP; source: T. brucei procyclic Lister 427, expressed from the endogenous locus, in lysate of cryomilled cells; not shown: eYFP, N-terminal, kept
T1 sequence (looked up): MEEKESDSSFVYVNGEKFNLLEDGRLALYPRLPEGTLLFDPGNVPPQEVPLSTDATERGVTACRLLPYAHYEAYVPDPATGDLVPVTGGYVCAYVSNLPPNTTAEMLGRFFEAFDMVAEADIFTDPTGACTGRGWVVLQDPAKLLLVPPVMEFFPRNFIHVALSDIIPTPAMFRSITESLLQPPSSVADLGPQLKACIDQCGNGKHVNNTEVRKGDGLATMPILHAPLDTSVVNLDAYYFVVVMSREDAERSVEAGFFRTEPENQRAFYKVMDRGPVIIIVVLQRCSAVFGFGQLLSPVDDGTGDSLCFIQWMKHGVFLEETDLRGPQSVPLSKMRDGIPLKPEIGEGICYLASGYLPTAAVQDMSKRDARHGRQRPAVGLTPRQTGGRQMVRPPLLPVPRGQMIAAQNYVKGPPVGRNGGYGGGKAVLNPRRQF
Kind of experiment: co-IP; eYFP fusion of eIF4E4 or G1-IP2 precipitated from cryomilled powder in low salt buffer with anti-GFP nanobody LaG16-LaG2 on magnetic beads; co-precipitated PABP-4Ty1 detected by western blot with anti-Ty1 (BB2); enrichment against beads without antibody, two replicates.

In experiment [2] the target is eIF4E4 eYFP fusion protein (T. brucei). Described as above.

Like-named read-outs stand apart in the source and are kept apart here.

Consider PABP2-4Ty1 (natural protein), for which the enrichment ratio against control beads without antibody came out at 19 fold in experiment [1] and 3 fold in experiment [2].

B1: PABP1-4Ty1 (natural protein, T. brucei, UniProt Q38E63 1-566, looked up)
chain: MTIAAQGVPSGPSATKPLQVASLYVGDLDPAINEPQLVDIFKPYGTILNVRVCRDIITQRSLGYGYVNYDDVNSASKAMEELNFKRVGEKCIRIMWQQRDPALRYSGSGNIFVKNLKEEVDSRELSLIFKKFGEILSCKVMDDESGKSRGYGFVHFKDDDAAKAAIEKMNGDKEHADADKAALYVANFIRRNARLAALVANFTNVYIKQLLPTVDKDVIEKFFSKFGGITSAAICKDKNGRAFAFCNFEKHDDAVKAIEASHDQEVEGVTQPGEKLYVQRAQPRSERLIALRQKYMQCQSLGNNLYVRNFDAEFTEKDLNELFKEYGVIRSCRVMTDANGISRGFGFVSFENADQANAALREMNGRMLNGKPLVVNIAQRRDQRLTMLKLQLQQRLQMMMHHMHPPPFGMPGHPLQRRNARSGGRGNRPHPRQQQPQPQPEPQPPLATTVPPAAAHSVMFTAPSMGFSAVPRTPQASPAIAPDTPPLPPISAEDLQQMSVDEQRAALGDRLYIKVHELAPDHAPKITGMFLEMNPKEALALLSNPKLMHEKVTEALCVLKVHASSA
notes: also called PABP-Ty1; source: T. brucei procyclic Lister 427, expressed from the endogenous locus, in lysate of cryomilled cells
On to B1, for which the “enrichment ratio against control beads without antibody” value in experiment [1] (partners not purified) came out at 4 fold; in experiment [2], 64 fold.
